This is an account of results in patent US20170313750A1 (Novo Nordisk, published 2017).

Numbered stars: 1 amine (or outer) side, 2 acyl side, 3 side chain; on linkers, the order of the positions; unused ones are H or OH. Side chains are listed from the residue outwards. * marks the point of attachment. C18 diacid = O=C(O)CCCCCCCCCCCCCCCCC(=O)*; γGlu = O=C(O)[C@H](CCC(=O)[*:2])N[*:1]; Isovaleryl = CC(C)CC(=O)*; AEEA = NCCOCCOCC(=O)O

Assay [1] deals with T1, human Y1 receptor (P25929, NPY1R_HUMAN, Uniprot) (human, UniProt P25929 1-384).
T1 construct: whole, on cells; Assayed as membrane preparations of the expressing cells; also called NPY-Y1 receptor
T1 sequence (looked up): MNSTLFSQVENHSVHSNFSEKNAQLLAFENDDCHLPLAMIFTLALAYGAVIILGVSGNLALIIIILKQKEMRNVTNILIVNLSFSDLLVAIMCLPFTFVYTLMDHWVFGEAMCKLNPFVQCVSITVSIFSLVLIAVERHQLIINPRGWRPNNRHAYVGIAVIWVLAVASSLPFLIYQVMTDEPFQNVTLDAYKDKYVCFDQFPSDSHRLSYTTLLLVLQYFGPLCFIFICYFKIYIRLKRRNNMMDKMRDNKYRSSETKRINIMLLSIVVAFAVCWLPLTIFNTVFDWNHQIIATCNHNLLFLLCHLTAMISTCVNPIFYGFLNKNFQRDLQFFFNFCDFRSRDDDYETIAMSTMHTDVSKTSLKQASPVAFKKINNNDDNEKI
The experiment in a line: SPA vs [125I]-PYY(1-36).
Description: (§1) Human Y receptor SPA binding assay were performed in white 96-well plates in a total volume of 200 μl per well.
(§2) Plates were sealed and incubated at +25° C. for 2 hours in a plate shaker set at 400 rpm and thereafter centrifuged at 1500 rpm for 10 minutes prior to reading of luminescence on a microplate scintillation and luminescence counter.

Assay [2] deals with T2, human Y5 receptor (Q15761, NPY5R_HUMAN, Uniprot) (human, UniProt Q15761 1-445).
T2 construct: whole, on cells; Assayed as membrane preparations of the expressing cells
T2 sequence (looked up): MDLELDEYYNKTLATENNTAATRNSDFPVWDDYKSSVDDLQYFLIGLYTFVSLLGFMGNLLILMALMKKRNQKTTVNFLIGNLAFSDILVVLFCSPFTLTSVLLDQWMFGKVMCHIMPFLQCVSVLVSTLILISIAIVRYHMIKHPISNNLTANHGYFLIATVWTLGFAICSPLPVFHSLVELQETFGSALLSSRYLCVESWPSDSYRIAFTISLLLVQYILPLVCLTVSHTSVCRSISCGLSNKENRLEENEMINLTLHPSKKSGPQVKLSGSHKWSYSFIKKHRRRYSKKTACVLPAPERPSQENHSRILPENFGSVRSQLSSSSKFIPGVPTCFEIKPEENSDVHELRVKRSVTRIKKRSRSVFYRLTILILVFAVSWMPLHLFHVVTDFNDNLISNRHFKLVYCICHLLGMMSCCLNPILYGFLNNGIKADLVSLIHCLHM
Nature of the assay: ratio of SPA values, Y2 as reference.
Description: as §1, §2

Assay [3] concerns the target T3, human Y4 receptor (P50391, NPY4R_HUMAN, Uniprot) (human, UniProt P50391 1-375).
T3 construct: whole, on cells; Assayed as membrane preparations of the expressing cells
Nature of the assay: ratio of SPA values, Y2 as reference.
Description: as §1, §2

Assay [4] deals with T4, human Y2 receptor (P49146, NPY2R_HUMAN, Uniprot) (human, UniProt P49146 1-381).
T4 sequence (looked up): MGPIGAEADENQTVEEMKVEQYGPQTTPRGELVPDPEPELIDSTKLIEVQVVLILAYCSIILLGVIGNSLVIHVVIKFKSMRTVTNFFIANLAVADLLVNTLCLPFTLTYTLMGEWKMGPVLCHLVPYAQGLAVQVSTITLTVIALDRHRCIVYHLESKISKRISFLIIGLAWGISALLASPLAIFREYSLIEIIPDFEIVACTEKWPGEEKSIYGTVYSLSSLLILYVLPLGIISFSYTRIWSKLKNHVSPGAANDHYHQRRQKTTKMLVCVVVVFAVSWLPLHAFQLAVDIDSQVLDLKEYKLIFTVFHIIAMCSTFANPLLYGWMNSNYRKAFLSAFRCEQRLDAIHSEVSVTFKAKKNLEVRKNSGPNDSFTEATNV
The experiment in a line: cell-based or functional assay.

The target in assay [5] is T4, human Y2 receptor (P49146, NPY2R_HUMAN, …). The experiment in a line: SPA vs [125I]-PYY(1-36).
Description: as §1, §2
The target in assay [6] is T2, human Y5 receptor (Q15761, NPY5R_HUMAN, …). The experiment in a line: SPA vs [125I]-PYY(1-36).
Description: as §1, §2
For assay [7], the target named is T3, human Y4 receptor (P50391, NPY4R_HUMAN, …). Nature of the assay: SPA vs [125I]-PP.
Description: as §1, §2

T3 sequence (P50391 whole entry, one chain of several): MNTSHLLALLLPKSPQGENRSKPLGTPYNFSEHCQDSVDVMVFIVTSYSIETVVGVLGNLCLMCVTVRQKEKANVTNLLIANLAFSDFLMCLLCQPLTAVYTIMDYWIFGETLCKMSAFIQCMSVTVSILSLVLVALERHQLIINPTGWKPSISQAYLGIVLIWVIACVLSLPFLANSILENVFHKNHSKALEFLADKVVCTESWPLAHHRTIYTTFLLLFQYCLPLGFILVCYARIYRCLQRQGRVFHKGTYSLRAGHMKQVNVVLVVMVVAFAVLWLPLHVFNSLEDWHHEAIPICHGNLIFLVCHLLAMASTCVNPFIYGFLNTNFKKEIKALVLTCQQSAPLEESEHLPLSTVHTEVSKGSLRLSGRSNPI

B1: N{alpha-4}-(3-Methylbutanoyl)-N{Epsilon-7}-[2-[2-[2-[[2-[2-[2-[[(4S)-4-carboxy-4-(17-carboxyheptadecanoylamino)butanoyl]amino]ethoxy]ethoxy]acetyl]amino]-ethoxy … (peptide)
peptide: RPEKPTEDASPEELQRYYASLRHYYNWLTRQRY
modifications: N-terminal alpha-amino (position 4): 3-methylbutanoyl; Lys7 (hPYY(1-36) numbering) epsilon-amino: [2-[2-[2-[[2-[2-[2-[[(4S)-4-carboxy-4-(17-carboxyheptadecanoylamino)butanoyl]amino]ethoxy]ethoxy]acetyl]amino]ethoxy]ethoxy]acetyl]; C-terminal amide
notes: also called Compound 14; 14
For the molecule B1, the affinity in assay [1] corresponds to a Ki of 8820 nM.

B2: N{alpha-4}-(3-Methylbutanoyl)-N{Epsilon-10}-[2-[2-[2-[[2-[2-[2-[[(4S)-4-carboxy-4-(17-carboxyheptadecanoylamino)butanoyl]amino]ethoxy]ethoxy]acetyl]-amino]ethox … (peptide)
peptide: Isovaleryl-RPEAPGK([AEEA-AEEA-γGlu-C18 diacid])DASPEELQRYYESLRHYYNWLTRQRY-NH2
SMILES: CC(C)CC(=O)N[C@@H](CCCNC(=N)N)C(=O)N1CCC[C@H]1C(=O)N[C@@H](CCC(=O)O)C(=O)N[C@@H](C)C(=O)N1CCC[C@H]1C(=O)NCC(=O)N[C@@H](CCCCNC(=O)COCCOCCNC(=O)COCCOCCNC(=O)CC[C@H](NC(=O)CCCCCCCCCCCCCCCCC(=O)O)C(=O)O)C(=O)N[C@@H](CC(=O)O)C(=O)N[C@@H](C)C(=O)N[C@@H](CO)C(=O)N1CCC[C@H]1C(=O)N[C@@H](CCC(=O)O)C(=O)N[C@@H](CCC(=O)O)C(=O)N[C@@H](CC(C)C)C(=O)N[C@@H](CCC(N)=O)C(=O)N[C@@H](CCCNC(=N)N)C(=O)N[C@@H](Cc1ccc(O)cc1)C(=O)N[C@@H](Cc1ccc(O)cc1)C(=O)N[C@@H](CCC(=O)O)C(=O)N[C@@H](CO)C(=O)N[C@@H](CC(C)C)C(=O)N[C@@H](CCCNC(=N)N)C(=O)N[C@@H](Cc1c[nH]cn1)C(=O)N[C@@H](Cc1ccc(O)cc1)C(=O)N[C@@H](Cc1ccc(O)cc1)C(=O)N[C@@H](CC(N)=O)C(=O)N[C@@H](Cc1c[nH]c2ccccc12)C(=O)N[C@@H](CC(C)C)C(=O)N[C@H](C(=O)N[C@@H](CCCNC(=N)N)C(=O)N[C@@H](CCC(N)=O)C(=O)N[C@@H](CCCNC(=N)N)C(=O)N[C@@H](Cc1ccc(O)cc1)C(N)=O)[C@@H](C)O
notes: also called Compound 51; 51
B2: in assay [2], the “Ratio of Y5/Y2 EC50 values” stood at 50. The “Ratio of Y4/Y2 EC50 values” in assay [3] was over 4350. Besides, the “Y2 EC50, Actone functional potency assay” value in assay [4] turned out to be 0.99 nM. The Ki in assay [5] was 2.3 nM; in assay [6] it was 116 nM; in assay [1], 2400 nM.
For Isovaleryl-RPEAPPK([γGlu-AEEA-γGlu-C18 diacid])DASPEELQRYYESLRHYYNWLTRQRY-NH2 (also called Compound 54; 54), the “Y2 EC50, Actone functional potency assay” value in assay [4] is 1.6 nM. Besides, the Ki in assay [5] amounted to 3.1 nM; in assay [6], 254 nM; in assay [1], 2420 nM; in assay [7], 5910 nM.

B3: N{alpha-4}-(3-Methylbutanoyl)-N{Epsilon-10}-[(4S)-4-carboxy-4-[[2-[2-[2-[[(4S)-4-carboxy-4-(17-carboxyheptadecanoylamino)butanoyl]amino]ethoxy]ethoxy]-acetyl]am … (peptide)
peptide: Isovaleryl-RPEAPPK([γGlu-AEEA-γGlu-C18 diacid])DASPEELQRYYASLRHYYNWLTRQRY-NH2
SMILES: CC(C)CC(=O)N[C@@H](CCCNC(=N)N)C(=O)N1CCC[C@H]1C(=O)N[C@@H](CCC(=O)O)C(=O)N[C@@H](C)C(=O)N1CCC[C@H]1C(=O)N1CCC[C@H]1C(=O)N[C@@H](CCCCNC(=O)CC[C@H](NC(=O)COCCOCCNC(=O)CC[C@H](NC(=O)CCCCCCCCCCCCCCCCC(=O)O)C(=O)O)C(=O)O)C(=O)N[C@@H](CC(=O)O)C(=O)N[C@@H](C)C(=O)N[C@@H](CO)C(=O)N1CCC[C@H]1C(=O)N[C@@H](CCC(=O)O)C(=O)N[C@@H](CCC(=O)O)C(=O)N[C@@H](CC(C)C)C(=O)N[C@@H](CCC(N)=O)C(=O)N[C@@H](CCCNC(=N)N)C(=O)N[C@@H](Cc1ccc(O)cc1)C(=O)N[C@@H](Cc1ccc(O)cc1)C(=O)N[C@@H](C)C(=O)N[C@@H](CO)C(=O)N[C@@H](CC(C)C)C(=O)N[C@@H](CCCNC(=N)N)C(=O)N[C@@H](Cc1c[nH]cn1)C(=O)N[C@@H](Cc1ccc(O)cc1)C(=O)N[C@@H](Cc1ccc(O)cc1)C(=O)N[C@@H](CC(N)=O)C(=O)N[C@@H](Cc1c[nH]c2ccccc12)C(=O)N[C@@H](CC(C)C)C(=O)N[C@H](C(=O)N[C@@H](CCCNC(=N)N)C(=O)N[C@@H](CCC(N)=O)C(=O)N[C@@H](CCCNC(=N)N)C(=O)N[C@@H](Cc1ccc(O)cc1)C(N)=O)[C@@H](C)O
notes: also called Compound 56; 56
On to B3, for which, in assay [2], the “Ratio of Y5/Y2 EC50 values” stood at 193. For the same molecule, in assay [3], the “Ratio of Y4/Y2 EC50 values” came out at 3060. Besides, the “Y2 EC50, Actone functional potency assay” value in assay [4] came to 0.54 nM. Besides, the Ki in assay [5] worked out at 1.4 nM; in assay [6], 279 nM; in assay [7], 4410 nM.
